Measured values published in a protein production outcome set (Wang et al. 2014).

Test: label from the status in PepcDB records
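Also: failed if final PepcDB status was selected cloned or expressed and not failed if soluble or beyond.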

Row | Sequence | protein production
1 | MIFASDLDQTLIYSRKSFRAHIEDNSIQLIETLDGKEISFITYKTITLLIKLQLHSYFIPVTTRTIEQFQRITLFQNEIIPEYAITSNGGNILHNGKQDVTWNKEIKKRISVECIERNDILKEFEQIAHKDWVISQKTADDLFHYCIIKRENIPYDELSSFTSWLDKQGWNHSLQGRKLYFVPKPINKWDAVQYIQEILQMDTIITAGDSLLDLCMLEKANYAFAPLHGELGATYNHLQPHIVKTDAIGIYAAEEIVSKSLQIIHSSSPTS | failed
2 | GKVIVLDAGHGGPDGGAVGGKDIVEKDITLEITKKVQDYLQEQGALVILTREGDYDLAQKDTKSYSRRKAEDLKKRVEIINKPDVDFFASIHLNALTSSGSKGAQTFYYRSSIENERAAKFIQAELRTSLENTNRSAKTISHVYLLKYAKTPGALIEAGFLSNVNERYMLNSEKYQQKVAAAVYRGILRYFTEKGNPPE | failed
3 | MEYSSIANGLFLISDINSDAAATISNVFDHTSMNTADLENMPTEKPVEYTKSPGHYYIVLPGQPNKYTAKIIINQLNASGETSDIATTTATSAYTTGLFTISAKYLVDDAFVINAGTGQEMTLTRIMDMDGSDYETFPVDVNQGPQTFTIVPQDQLLHATVNYKFADGTEAAPSAKLSGYAGLTTVSAKSPTISGYTPDQKEVAVAFAPTEKTYTVTYKANPTTPTATESSASSSTADEATTFTPFKIYGKRALYTYKNATFKKNQRVSHYAQKSKAYAPIFEVVGTAKSTSGHLRYKLADGTYVTANADYVGALYWQGMYQKLYVTNPKGTNAYDGTRFAQATKQKHYRQGTALTVVKQTQVGQTTRYELTNGTYVTGNKQWVSPTKPRLVKQVKVKRTIRLYRDVNGSTFIKRIKPGKTLTVTGWDYSHGRNPRLSGTLRYRVAGGYITANRQFVVAN | failed
4 | MERDLAGRIVALVSPTGLRTSYSYDACGRMVDVTDPAGRVTRYSYTSDFQVATVTYPTGETARYEYDAMGRVVLSHVPGAGVSQYRYDPCGRLVFSCDLVYGQRHFSYDLAGQLVAATNPAGGVSRYGYDRCGRLVTRTDPGGGLTTYQYNECGQMIAATDPLGRVTEYTWDKSGTLAAITRPDGTVVSRRLGPKGVEEYIDDQLVSRILITPTTRTVTIDDYTDPAFPWRHLLGYDPRGLLLTHSVAPVPGDESIVDEGPLTSSEQWWYDAEGRRVRHLTLTGDSIDYAYTNTGVLGSIRHSRLGEVSLEWDAVGRLAKLGSPLDQQQWGYTDGFVTSHTSSRGSTTISRDEMGRVLRVSAPYGDFRYGYDDSGSLTSADGLDGSSRRWVYDTAGRLVTTTCQDAGTSQTCHYDYDLAGELVSTVTQLGPGDSTVETHYRYDPCGRRIEAASSAGMREEFRWDSRGWLAGVMTFRAGRSHEFATHVDAFGCLTDVSGPAGRTPIAWDLATGEPQLVQVGGIPALPLPDGSVLTPVSADSDQDEPWRRPATDPLDPYTLIQEHLTAGISMTGGHLGVAGLAWMGARVYDSTTASFLTIDPLAAPPGSLWEAASYGYAATNPLALADPLGLRPVTDAQMRQFASTIDTRNLWDRHIRNVFSWETLGGVALATAGGLLMCFGAEVPGAMLIGAGGDMVFQQVVRGHVDYGEVALSGALAPTGGSGLSEIAGLGTRTLLTRGIEAGTTQGYVMGNYHWVTSPGPHNAETYLEQVGGETLSGAAFGGITATIGGKTYDALPDSIPTGHFGPHNTILRVGKQPETFIRKYQRNGKLDFGQATSFRGATFKSKIAIKPITTYRSWSDPDYEVGGYVSRTRPAGPLQTQLDLALAPQWGNKANHISEYEIPQFAPFYEGAAGVQPVKAIEDSDTLGQLPGGGNQILITDKQVLDRWKSKK | failed
5 | MDSSDSHVGQDVYVDQGLGEPDRLERLWAPYRMSYINTRSGGKQSTTAKRDPFIEVPKMSDEDGLIVARGELVYCVLNLYPYNAGHMMVIPFRKEKNLEDLSLAESAELMLFTQTAIKALKQVSNPDAVNVGLNLGKASGGSVGDHLHVHVVPRWSGDANFMTVIDGVKVLPQTLRQTRAMLAQAWGTIDGAPGTVDPTLTSAIRTAAPKEH | failed
6 | MRWLNRHKFLPFLAWLPQQSRASVGRDALVGLSGAILALPQSIAYALIAGLPPEYGLYAAIVPVLIACLWGSSWHLICGPTAAISIVLYVSVSPLAVPASQDYIMLILLLTFIAGVFQLLLGMMRFGALVNFVSHSVVLGFTLGAAVVIALGQMPNLLGIDLPSQTTALKSLSAVLEHRGELDKPSLMLGLLTLTLGIGLKAWVPRWPTLLIALVSSSLLVWLWPAMFGHVRVVSAFVGHLPPFSPLPLDLELILKLLPTAVAVGMLGLVNSLSIARSLSARSQQMLNANQEVRAQGLSNMVGSLFSGYLSAGSFTRAALSYEAGARSPLAGVFSALWVALFAVAGASLVSHIPIPAMAASILLICWGLVDRRGIRALLRVSRAEFFVMALTCLATLLLELQTAIYAGVLASLFFYLKRTSQPRVQQWREGDEDVLRVGGSIFFGASHYLQTRLQRTEGLRVVIDAQQINFIDYSGVEMLHQEARRLGQQGRVLVLRNARPLVIEELHKLEGPENCPILFED | failed
7 | MRRGSGNPERPSLSRDGLRVPPPCPGKRGPGHFSGYHGGMEGIRRAAQRAAEEFLQAFPMAPGSLFVLGGSTSEVLGERVGTRPSLEAAHAVLEGLLPPLLERGVHVAVQACEHLNRALVVERETARAFGLEEVAVFPHPKAGGALATAAFLRFRDPVMVESLKAQAHGGMDIGGVLIGMHLRPVAVPLRLSVRKIGEAVLLAAKTRPKLVGGARAVYTREEMLKKLEEFLPKPP | not failed
8 | MQLLPGPVRRFAAWCAVILLASGVVYVAIRLCVEFRTAVTPALLALLGTALLRPLHARLVKAHVQRSLAAGLTCAAVLAVVGGAVYIVVSALVETGDQIVTSLRDAAQGIADHFGAAGTSLDDLASNARELLGKFGGTAASGVVTGISVVGEMIAMAVLALLLVFFFLRDSDRAVTTVRALAPPGGADTVEAVARRAFGAVEGFMRGTTLIALIDAFCITVGLLVLRVPGAVGLGALVFVGAYIPYLGAFISGAVAVLVALADRGFVIALWALGVVLAVQVLEGHVLQPMIQSRTVQMHPAVVLLALTAGASVAGILGMLLAVPLTAAAFGVVHELQARYGVSTAASGPDAGPAPSTGAADS | failed
9 | YPLRKTQAVQSTQFDSRHSFVTKLKPYADKAARMLGVDSSLLIAQAALETGWGQKMVKNARGNSNNLFNIKADRSWQGDKVATQTLEYHNNVPVVEKAAFRSYASFDESFNDYVRFLENNPRYTNALDHGGNSERFIHGIHRAGYATDPQYADKVLRVKAQIDQMNL | failed
10 | MGMASMSSGTESLRLCVFDLRRGQHEGQELDKILFFYPPDLTFSTQLSVIGLSEGLITFTRLFSPEAACEVIEAERHSHVFYEAEPDIWMVMIVEKNKEIEAVWRIDALRRVLKEVHSLFVMFQGSIRALLEKEPTGGLVRSHLYPFITDYLNDLFVGKKQQLPSFRDTLKERGTVQMLTLARDAALEVQSLVGVLDSCAGTVRCHSVILFHDLLVSTTLSPDDTVDLFAFSVMRLTTNALSSGTSSWSYLRKGSGSPQISSRSTTVPPLGSGGTLPSGNGSSTGRVIRPLQHDKWSKGKDGFLVTDIWGLDATPTILIQKTQESFYLLTYQYKSLTLVLLVPIAAIVNGELDISFVKQQVIENASTKILKVEEKLSKGWGGENAYHVSGYRYLLVDNDMEVSRASPPGKVATLAKESLLALNKLREEVDTEKNRSKQEKDMEICIRAKNNTWVIARLNRGKELYMALEKASETLLDATDSVQRFSNRYCSGAFPMD | failed
11 | MQALTTYKCIEKGIVVWLTGLPGSGKTTIATRLADLLQKEGYRVEVLDGDWARTTVSEGAGFTREERLRHLKRIAWIARLLARNGVIVICSFVSPYKQARNMVRRIVEEEGIPFLEIYVKASLEEVIRRDPKGLYKKALKGELENFTGITDPYEPPENPQLVLDTESNTIEHNVSYLYSLVKAVIE | not failed
12 | MNEHNITNTSLALSMLLVVVAMLISHKEKLALEKDILWSVCRAVIQLIIVGYVLKYIFGVNHAALTLLMVLFICFNAAWNAQKRSKYIDKAFLSSFIAITVGAGLTLTVLVLTGSIEFAPMQVIPIAGMVAGNAMVAVGLCYNQLGLRFHSEQQQIQEKLSLGATPKMASAGLIRDSIRASLIPTIDSAKTVGLVSLPGMMSGLIFAGIDPVKAIKYQIMVTFMLLSTASLSTIIACYLTYRKFYNSRHQLVVMPLKKS | failed
13 | MNTARANRENGAGNIYIGFGDSQLSLMDSHQARPEPVHTVCSKPPLKRPPSREEHLRQRLVKTIHSQRIISGKNRLSNPPRMANPQANSIIGISTYFGPTN | failed
14 | MNYRLIPALFLIVMGALFLLDNLGLAHMDVGNLIATWWPVFLIAAGVRQLLRYRQRAAATC | failed
15 | MVIDFSAFYELPRLIDRLAAEGESSFAASRGQAVFPPLNIGEDESAVYVRALIPGGDLSALDLTLTDKTLVLRGELPPVRGRYYRQERRTGPFQRVVLLNVPIDRDRVHAAMRDGVLEVVLPKAQQERLRTIHITTR | failed
16 | MNTVFFYLQVSIKNLHDSIKNLRVSIKNLYVSIKGAGITAFLQTVKYERFEEKILMDFISNLFGRDKNQSFLEASKQGQTENVEKLLRSNKVDVNYQDAYGKTALISAADKGYRDVIGLLIESGPNLDLQDENGNTALISAAKIERGDIIDLLVKNGADLNFQDENGETALKFAVKVGYKNIADQLIDAGTDLNIQDENGETALICAADRAHRDIAELLIKAGADLNIQDNSGKTALVAATKIGHKGIVELLVNAGADLNLQDKNGNTALIYAADRGYRDIVNLLIEGGASLNIPDEAGLTALMFSAQTGRKDIVELLIKAGADINIEDKNNKTAADLAAEVGFEEIVDLLTSVRTYSSS | failed
17 | MTDLWLTLVNSVNAALGEVHVMTAWEALAVVLAMAYLLLAMKASVWCWAAAFTSTAIYTVLFWKVALLMESMLNIYYMGMALYGYWLWTQGGDKHQGVKVTTWPLKTHLKLIAATTLVSLGIGHGMATFTQASFPYLDAATTCFAVMTTYLVAKKVLENWLYWVVIDLVSIYLYLSKGLMLTSLLFVLYVGLAVVGYFLWRTALAESRLNLNGERAAKLLG | failed
18 | LPDQRTVLYVHGGAWFQDPLENHFEYLDLLVDALDARVIMPVYPKIPHRDYRTTFELLTKIYKRLLTKIDEPENLVIIGDSAGGQIALAFAQMLKKEQLSQPGHIVLISPVLDATFKNPEARKYEKEDPMLGIDGSKYLVELWAGDAPLDDYKMSPMNGDLEGLGHITLTVGTKETLYPDAVKFSHMLNDKGIKHQFIPGYNLFHIYPLFPIPERQRFLEQLKKIIVTKEL | not failed
